The results in this text go back to paper PMC7409537, “CYP20-3 deglutathionylates 2-CysPRX A and suppresses peroxide detoxification during heat stress” (Life Science Alliance, 2020).

Changes are numbered by the printed parent chain. “And” between values parts separate entries of the source, which are not always exact repeats. Equal entries are not always repeated.

Data set [1] addresses Cys to Ser mutant 2CPB C53S/C175S, tag-free (Arabidopsis thaliana). The data set is described as follows: nonreducing SDS/PAGE (redox shift visualization); 1 μM (Fig 1) or 1.5 μM (Fig S2) recombinant 2CP incubated with/without 1 mM GSH (50 mM Tris-HCl pH 7.5, 25°C, 30 min), nonreducing SDS/PAGE, Coomassie stain (anti-GSH Western blot in Fig S2); oligomer size read from gel mobility; self-association. In general terms: A western blot detects proteins with antibodies after separation by electrophoresis.

Data set [2] deals with the molecule itself. In words: nonreducing SDS/PAGE (redox shift visualization); 1 μM tag-free 2CP incubated with 1 mM GSH and 0.1% (vol/vol) Triton X-100 (partial denaturation), nonreducing SDS/PAGE, Coomassie stain; self-association.
Data set [3] concerns the molecule itself. The data set is described as follows: nonreducing SDS/PAGE (redox shift visualization); 1 μM (Fig 1) or 1.5 μM (Fig S2) recombinant 2CP incubated with/without 1 mM GSH (50 mM Tris-HCl pH 7.5, 25°C, 30 min), nonreducing SDS/PAGE, Coomassie stain (anti-GSH Western blot in Fig S2); oligomer size read from gel mobility; self-association.
Data set [4] concerns the molecule itself. The data set is described as follows: nonreducing SDS/PAGE (redox shift visualization); 1.5 μM 2CP^GS incubated with CYP20-3 (0-5 μM) at 42°C for 15 min, nonreducing SDS/PAGE, Coomassie stain and anti-GSH Western blot; self-association of the 2CP after the treatment.
Data set [5] concerns the molecule itself. In words: nonreducing SDS/PAGE with Western blot of plant extracts; total leaf protein extracts of Arabidopsis (WT Col-0, 2cpa, 2cpb, cyp20-3; untreated or 0, 3, 6 h post wounding), nonreducing SDS/PAGE, Western blot with anti-2CPA or anti-GSH antibody; oligomer size read from gel mobility.

Consider “Cys to Ser mutant 2CPB C53S/C175S, tag-free (enzyme)”, for which, in data set [1], the stoichiometry N worked out at 10.

B1: GSH-glutathionylated 2-Cys peroxiredoxin A (2CPA^GS), tag-free recombinant (enzyme, Arabidopsis thaliana)
chain: GSHMKAQADDLPLVGNKAPDFEAEAVFDQEFIKVKLSDYIGKKYVILFFYPLDFTFVCPTEITAFSDRHSEFEKLNTEVLGVSVDSVFSHLAWVQTDRKSGGLGDLNYPLISDVTKSISKSFGVLIHDQGIALRGLFIIDKEGVIQHSTINNLGIGRSVDETMRTLQALQYIQENPDEVCPAGWKPGEKSMKPDPKLSKEYFSAI
modifications: S-glutathionylated by GSH (mixed disulfide GS-S on a Cys; the discussion names the resolving Cys, CR^53)
notes: four nonnative residues (Gly, Ser, His, Met) left at the N terminus after thrombin removal of the His-tag; C53 is C119 and C175 is C241 in Q96291; source: E. coli BL21 (DE3), purified (Ni-NTA), His-tag removed with thrombin, incubated with GSH; not shown: His-tag, N-terminal, cleaved
As to B1, the “stoichiometry N” value in data set [2] turned out to be 10; in data set [3], 2.

B2: 2-Cys peroxiredoxin B (2CPB), tag-free recombinant, not glutathionylated (enzyme, Arabidopsis thaliana)
chain: B1 chain with D38E, H69Y, S70E, I111V, V114I, H127P, I172V
notes: four nonnative residues (Gly, Ser, His, Met) left at the N terminus after thrombin removal of the His-tag; C53 is C126 and C175 is C248 in Q9C5R8; also called 2-CysPRX B; 2CP isoform B; source: E. coli BL21 (DE3), purified (Ni-NTA), His-tag removed with thrombin; not shown: His-tag, N-terminal, cleaved
Turning to B2, the “stoichiometry N” value in data set [3] is 10 and 20.

B3: GSH-glutathionylated 2-Cys peroxiredoxin B (2CPB^GS), tag-free recombinant (enzyme, Arabidopsis thaliana)
chain: B1 chain with D38E, H69Y, S70E, I111V, V114I, H127P, I172V
modifications: S-glutathionylated by GSH (mixed disulfide GS-S on a Cys)
notes: four nonnative residues (Gly, Ser, His, Met) left at the N terminus after thrombin removal of the His-tag; C53 is C126 and C175 is C248 in Q9C5R8; source: E. coli BL21 (DE3), purified (Ni-NTA), His-tag removed with thrombin, incubated with GSH; not shown: His-tag, N-terminal, cleaved
For B3, the “stoichiometry N” value in data set [4] was determined as 10; in data set [3] it was 20.

B4: 2-Cys peroxiredoxin A (2CPA), tag-free recombinant, not glutathionylated (enzyme, Arabidopsis thaliana)
chain: B1 chain
notes: four nonnative residues (Gly, Ser, His, Met) left at the N terminus after thrombin removal of the His-tag; C53 is C119 and C175 is C241 in Q96291; also called 2-CysPRX A; 2CP isoform A; source: E. coli BL21 (DE3), purified (Ni-NTA), His-tag removed with thrombin; not shown: His-tag, N-terminal, cleaved
Consider B4, for which, in data set [4], the “stoichiometry N” value was 2.

B5: endogenous GSH-glutathionylated 2CPA (2CPA^GS) in Arabidopsis leaf extracts (enzyme, UniProt Q96291 66-266, looked up)
chain: KAQADDLPLVGNKAPDFEAEAVFDQEFIKVKLSDYIGKKYVILFFYPLDFTFVCPTEITAFSDRHSEFEKLNTEVLGVSVDSVFSHLAWVQTDRKSGGLGDLNYPLISDVTKSISKSFGVLIHDQGIALRGLFIIDKEGVIQHSTINNLGIGRSVDETMRTLQALQYIQENPDEVCPAGWKPGEKSMKPDPKLSKEYFSAI
modifications: S-glutathionylated (as the paper names it: 2CPA^GS)
notes: 2-Cys peroxiredoxin A (2CPA), Arabidopsis thaliana, At3g11630, endogenous plastid protein; Bands in WT extracts detected with 2CP antibody and put down to 2CPA^GS by the authors; source: endogenous, Arabidopsis (Col-0) leaf total protein extract
Take B5: in data set [5], the “stoichiometry N” value was 2.

B6: His-tagged GSH-glutathionylated 2-Cys peroxiredoxin B (His-tagged 2CPB^GS) (enzyme, Arabidopsis thaliana, UniProt Q9C5R8 73-273, looked up)
chain: B5 chain with D34E, H65Y, S66E, I107V, V110I, H123P, I168V
modifications: S-glutathionylated by GSH (mixed disulfide GS-S on a Cys)
notes: C53 is C126 and C175 is C248 in Q9C5R8; Tagged version cloned BamHI/HindIII into pET28a; source: E. coli BL21 (DE3), purified (Ni-NTA), incubated with GSH
In the case of B6, the “stoichiometry N” value in data set [3] is 20 and 10.

Broadly, the stoichiometry N is the number of molecules, sites or subunits per partner or assembly.
